Key:
Test in all cases: SPOT array
[1] = target: T1, Lsb3, P43603; conditions: median of control spots 406
T1 sequence (P43603 385-451, looked up): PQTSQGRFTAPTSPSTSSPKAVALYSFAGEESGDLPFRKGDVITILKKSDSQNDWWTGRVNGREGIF

[2] = target: Bem1-2, P29366; conditions: median of control spots 4347
[3] = target: T2, Bzz1-2, P38822; conditions: median of control spots 4538
T2 sequence (P38822 568-633, looked up): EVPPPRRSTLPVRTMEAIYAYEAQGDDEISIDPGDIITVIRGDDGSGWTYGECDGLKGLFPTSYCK

[4] = target: T3, Myo5, Q04439; conditions: median of control spots 471
T3 sequence (Q04439 1072-1160, looked up): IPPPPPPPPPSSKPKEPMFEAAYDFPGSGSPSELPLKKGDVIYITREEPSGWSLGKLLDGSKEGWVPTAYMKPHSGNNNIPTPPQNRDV

[5] = target: T4, Bzz1-1, P38822; conditions: median of control spots 4446
T4 sequence (P38822 478-572, looked up): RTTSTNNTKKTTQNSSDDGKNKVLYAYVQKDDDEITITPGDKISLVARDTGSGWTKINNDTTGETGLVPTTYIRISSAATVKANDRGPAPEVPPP

[6] = target: Bem1-1, P29366; conditions: median of control spots 4282
[7] = target: T5, Boi2, P39969; conditions: median of control spots 1161
T5 sequence (P39969 32-116, looked up): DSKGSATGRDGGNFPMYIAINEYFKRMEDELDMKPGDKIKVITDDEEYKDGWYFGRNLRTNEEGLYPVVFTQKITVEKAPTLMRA

[8] = target: T6, Pex13, P80667; conditions: median of control spots 1341
T6 sequence (P80667 295-386, looked up): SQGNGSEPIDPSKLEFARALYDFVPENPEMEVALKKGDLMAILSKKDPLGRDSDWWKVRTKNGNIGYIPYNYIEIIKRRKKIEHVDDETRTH

[9] = target: Rvs167, P39743; conditions: median of control spots 2707
[10] = target: T7, Nbp2, Q12163; conditions: median of control spots 357
T7 sequence (Q12163 103-180, looked up): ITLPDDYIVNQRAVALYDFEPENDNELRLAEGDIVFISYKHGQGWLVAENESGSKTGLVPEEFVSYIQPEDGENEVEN

[11] = target: GST; conditions: median of control spots 978
[12] = target: T8, Hof1, Q05080; conditions: median of control spots 4086
T8 sequence (Q05080 590-669, looked up): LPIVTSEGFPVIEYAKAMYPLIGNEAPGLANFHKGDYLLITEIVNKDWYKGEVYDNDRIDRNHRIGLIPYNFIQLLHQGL

[13] = target: T9, Bbc1, P47068; conditions: median of control spots 796
T9 sequence (P47068 1-78, looked up): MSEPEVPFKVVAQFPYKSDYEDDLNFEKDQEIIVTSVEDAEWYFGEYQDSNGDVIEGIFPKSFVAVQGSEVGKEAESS

[14] = target: T10, Sla1-2, P32790; conditions: median of control spots 712
T10 sequence (P32790 60-140, looked up): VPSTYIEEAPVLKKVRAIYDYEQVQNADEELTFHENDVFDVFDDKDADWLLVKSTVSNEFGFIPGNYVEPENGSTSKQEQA

[15] = target: T11, Cdc25, P04821; conditions: median of control spots 969
T11 sequence (P04821 50-136, looked up): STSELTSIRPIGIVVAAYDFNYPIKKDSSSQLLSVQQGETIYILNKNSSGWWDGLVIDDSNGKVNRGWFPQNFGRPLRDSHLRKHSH

[16] = target: T12, Pin3, Q06449; conditions: median of control spots 2171
T12 sequence (Q06449 53-122, looked up): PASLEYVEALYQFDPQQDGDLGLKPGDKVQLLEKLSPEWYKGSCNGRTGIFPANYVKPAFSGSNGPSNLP

[17] = target: T13, Fus1, P11710; conditions: median of control spots 1200
T13 sequence (P11710 432-512, looked up): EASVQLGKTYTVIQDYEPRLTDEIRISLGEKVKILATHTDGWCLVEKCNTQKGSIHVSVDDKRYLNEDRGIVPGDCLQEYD

[18] = target: T14, Abp1, P15891; conditions: median of control spots 935
T14 sequence (P15891 535-592, looked up): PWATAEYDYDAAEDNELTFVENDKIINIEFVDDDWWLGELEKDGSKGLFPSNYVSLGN

[19] = target: T15, Hse1, P38753; conditions: median of control spots 1727
T15 sequence (P38753 208-285, looked up): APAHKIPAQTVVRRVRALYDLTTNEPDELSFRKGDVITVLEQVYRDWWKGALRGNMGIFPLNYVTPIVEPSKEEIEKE

[20] = target: T16, Boi1, P38041; conditions: median of control spots 1162
T16 sequence (P38041 1-86, looked up): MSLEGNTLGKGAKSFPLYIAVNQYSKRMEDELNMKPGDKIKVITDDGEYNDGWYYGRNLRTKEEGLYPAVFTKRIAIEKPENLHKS

[21] = target: T17, Lsb1, P53281; conditions: median of control spots 388
T17 sequence (P53281 45-122, looked up): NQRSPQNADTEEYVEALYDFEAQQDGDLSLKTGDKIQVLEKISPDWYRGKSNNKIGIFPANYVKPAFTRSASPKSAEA

[22] = target: T18, Bud14, P27637; conditions: median of control spots 956
T18 sequence (P27637 247-328, looked up): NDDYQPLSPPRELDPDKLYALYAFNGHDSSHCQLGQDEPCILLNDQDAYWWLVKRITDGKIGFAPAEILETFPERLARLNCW

[23] = target: T19, Cyk3, Q07533; conditions: median of control spots 1451
T19 sequence (Q07533 1-83, looked up): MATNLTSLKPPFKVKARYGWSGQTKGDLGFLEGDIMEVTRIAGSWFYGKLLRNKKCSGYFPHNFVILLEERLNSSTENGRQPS

[24] = target: Myo3, P36006; conditions: median of control spots 468
[25] = target: T20, Sla1-3, P32790; conditions: median of control spots 5475
T20 sequence (P32790 344-424, looked up): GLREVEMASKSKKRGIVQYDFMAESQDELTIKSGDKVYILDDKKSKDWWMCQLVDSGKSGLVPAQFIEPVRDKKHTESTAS

[26] = target: Sho1, P40073; conditions: median of control spots 1148
[27] = target: T21, Lsb4, P32793; conditions: median of control spots 397
T21 sequence (P32793 402-468, looked up): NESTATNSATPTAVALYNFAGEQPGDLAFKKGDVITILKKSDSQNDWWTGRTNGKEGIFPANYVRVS

Chain of Bem1-2, P29366 (P29366 139-227): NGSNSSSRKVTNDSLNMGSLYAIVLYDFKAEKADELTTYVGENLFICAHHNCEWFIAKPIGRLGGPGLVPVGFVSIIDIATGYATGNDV
Chain of Sho1, P40073 (P40073 287-367): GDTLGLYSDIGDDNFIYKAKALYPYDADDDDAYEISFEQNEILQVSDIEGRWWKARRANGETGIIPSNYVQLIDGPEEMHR
Chain of Rvs167, P39743 (P39743 419-482): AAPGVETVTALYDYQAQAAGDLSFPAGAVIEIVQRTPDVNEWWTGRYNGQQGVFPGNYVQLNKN
Chain of Bem1-1, P29366 (P29366 55-141): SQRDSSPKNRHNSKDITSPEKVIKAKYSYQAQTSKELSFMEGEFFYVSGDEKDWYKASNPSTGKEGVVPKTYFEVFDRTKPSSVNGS

Binder: LYKRKPILLPDPKPL
- SPOT intensity [1]: 0
- SPOT intensity [2]: 0
- SPOT intensity [3]: 0
- SPOT intensity [4]: 1
- SPOT intensity [5]: 0
- SPOT intensity [6]: 0
- SPOT intensity [7]: 0
- SPOT intensity [8]: 1
- SPOT intensity [9]: 0
- SPOT intensity [10]: 1
- SPOT intensity [11]: 2
- SPOT intensity [12]: 0
- SPOT intensity [13]: 2
- SPOT intensity [14]: 0
- SPOT intensity [15]: 0
- SPOT intensity [16]: 7
- SPOT intensity [17]: 0
- SPOT intensity [18]: 43
- SPOT intensity [19]: 2
- SPOT intensity [20]: 0
- SPOT intensity [21]: 1210
- SPOT intensity [22]: 1
- SPOT intensity [23]: 0
- SPOT intensity [24]: 0
- SPOT intensity [25]: 0
- SPOT intensity [26]: 15
- SPOT intensity [27]: 0

Binder: NSVPIMPTLPPRPYI
- SPOT intensity [1]: 242
- SPOT intensity [2]: 2
- SPOT intensity [3]: 0
- SPOT intensity [4]: 25
- SPOT intensity [5]: 0
- SPOT intensity [6]: 0
- SPOT intensity [7]: 0
- SPOT intensity [8]: 172
- SPOT intensity [9]: 157
- SPOT intensity [10]: 0
- SPOT intensity [11]: 1
- SPOT intensity [12]: 2750
- SPOT intensity [13]: 109
- SPOT intensity [14]: 0
- SPOT intensity [15]: 0
- SPOT intensity [16]: 28
- SPOT intensity [17]: 0
- SPOT intensity [18]: 14
- SPOT intensity [19]: 368
- SPOT intensity [20]: 0
- SPOT intensity [21]: 176
- SPOT intensity [22]: 0
- SPOT intensity [23]: 2
- SPOT intensity [24]: 26
- SPOT intensity [25]: 0
- SPOT intensity [26]: 0
- SPOT intensity [27]: 513

Binder: PSRRAPLQLPQLVNK
- SPOT intensity [1]: 0
- SPOT intensity [2]: 0
- SPOT intensity [3]: 0
- SPOT intensity [4]: 0
- SPOT intensity [5]: 0
- SPOT intensity [6]: 2
- SPOT intensity [7]: 0
- SPOT intensity [8]: 1
- SPOT intensity [9]: 0
- SPOT intensity [10]: 0
- SPOT intensity [11]: 1
- SPOT intensity [12]: 0
- SPOT intensity [13]: 12
- SPOT intensity [14]: 0
- SPOT intensity [15]: 0
- SPOT intensity [16]: 5
- SPOT intensity [17]: 0
- SPOT intensity [18]: 45
- SPOT intensity [19]: 0
- SPOT intensity [20]: 0
- SPOT intensity [21]: 313
- SPOT intensity [22]: 0
- SPOT intensity [23]: 0
- SPOT intensity [24]: 0
- SPOT intensity [25]: 0
- SPOT intensity [26]: 17
- SPOT intensity [27]: 2
